From patent publication US10363306B2, “Cytokines and neuroantigens for treatment of immune disorders” (East Carolina University, priority 2009, dated 2019) come the findings set out here.

One experiment relates to BN-GP T cells. As to the kind of experiment: IFNβ anti-proliferative activity in IL-2 stimulated cultures of BN-GP T cells. The format is cell-based, rat. Particulars: for Biological activity of IFNβ in expression supernatants: transient transfection of HEK293 cells. As for the experimental part: FIG. 1. The IFNβ-NAg his-tagged fusion protein was biologically active and was purified on nickel resins. (A) To assess whether IFNβ-NAg induced class I MHC expression, thymocytes (5×10^6/ml in complete RPMI) were cultured with or without IFNβ-NAg for 2 days and then were stained with B5 (anti-MHC-I), OX18 (anti-MHC-I), R73 (anti-TCRβ), or OX81 (anti-IL4; isotype control) and were analyzed by flow cytometry. (B) To assess IFNβ-mediated anti-proliferative activity, supernatants from two independently derived IFNβ-NAg expression systems as well as supernatants from several control expression systems were added at designated titrations (x-axis) to IL-2 stimulated cultures of BN-GP T cells. (C) To assess the specificity of anti-proliferative activity, baculovirus supernatants containing IFNβ-NAg were added at designated titrations to cultures of rat (R1T, BN-GP, RsL.11T, RsL.11, or Conal.8D9) or mouse (CTLL) T cells. Proliferative assays (B & C) were pulsed with [^3H]thymidine on the second day of a 3-day culture. (D) Shown is a representative SDS-PAGE analysis of purified IFNβ-NAg.
(§1) FIG. 2. Structure-function analysis of the cytokine and NAg domains of IFNβ fusion proteins. (A) Expression supernatants containing designated IFNβ fusion proteins (see Table 2) were added to cultures of BN-GP T cells at designated titrations (x-axis). (B) The IFNβ-EK-NAg-6his or IFNβ-EK-6his fusion genes were inserted into the pCEP4 expression vector (Invitrogen). Inserts were verified by DNA sequencing, and the genes were expressed by transient transfection of HEK293 cells. Independently derived expression systems of IFNβ-EK-NAg-6his or IFNβ-EK-6his (3 each) were compared in the BN-GP T cell anti-proliferative assay. (C) Independently purified preparations (2 each) of each IFN-β fusion protein (IFNβ-NAg from HEK293 cells, IFNβ-NAg from baculovirus, and IFN-β from HEK293 cells) were added at designated concentrations to assess anti-proliferative activity. Two independently purified preparations of the same fusion protein were tested to verify the reliability of activity for each type of protein. The x-axis was based on the exponent of the molar concentration. For example, a concentration of 100 nM was represented as Log [10^−7]=Log10) (10^−7M)=−7 and was plotted by the exponent of −7. For these experiments (A-C), BN-GP T cells were cultured in IL-2. (D) The MBP-specific RsL.11 T cell clone and irradiated splenic APC were cultured with designated concentrations of purified IFNβ-NAg or GPMBP in the presence or absence of the OX6 anti-MHC-II mAb. (E) Five preparations of purified IFNβ-NAg and six preparations of purified IFN-β were tested for antigenic activity in cultures of RsL.11 T cells and irradiated splenic APC.
(§2) The RsL.11 MBP-specific clone was a stable, IL-2 dependent line derived from Lewis rats sensitized with rat MBP in CFA (Mannie, M. D., and M. S. Norris. 2001. MHC class-II-restricted antigen presentation by myelin basic protein-specific CD4+ T cells causes prolonged desensitization and outgrowth of CD4-responders. Cell Immunol 212:51-62). The RsL.11T clone was a transformed variant of the RsL.11 clone. […]

In experiment [1] the test system is MBP-specific RsL.11 T cell clone. As to the kind of experiment: Antigen-specific proliferation of RsL.11 T cell clone with irradiated splenic APC. The format is cell-based, rat. Here is the method:
as §1, §2

B1: IFNβ-NAg: Fusion protein: rat IFNβ, enterokinase linker (GDDDDKG), encephalitogenic 73-87 peptide of guinea pig MBP, C-terminal 6-histidine tag (protein)
chain: IDYKQLQFRQSTSIRTCQKLLRQLNGRLNLSYRTDFKIPMEVMHPSQMEKSYTAFAIQVMLQNVFLVFRSNFSSTGWNETIVESLLDELHQQTELLEIILKEKQEERLTWVTSTTTLGLKSYYWRVQRYLKDKKYNSYAWMVVRAEVFRNFSIILRLNRNFQNGDDDDKGPQKSQRSQDENPVVHHHHHH
Turning to B1, the “Biological activity of IFNβ in expression supernatants” value with BN-GP T cells is recorded as “Potent activity”. In addition, the “cytokine activity relative to HEK293-derived protein” value in the experiment on BN-GP T cells (protein purified from baculovirus expression supernatants) is listed as “less active”. Moreover, the “antigenic potency relative to GPMBP” value in experiment [1] (at low concentrations, concentration eliciting half-maximal response) is given as “more potent than intact guinea pig myelin basic protein”. Besides, the peak proliferative response entry in experiment [1] (compared with GPMBP) is “substantially less than that stimulated by GPMBP”.

B2: IFNβ: Rat interferon beta cytokine with enterokinase linker and 6-histidine sequence, no neuroantigen (protein)
chain: IDYKQLQFRQSTSIRTCQKLLRQLNGRLNLSYRTDFKIPMEVMHPSQMEKSYTAFAIQVMLQNVFLVFRSNFSSTGWNETIVESLLDELHQQTELLEIILKEKQEERLTWVTSTTTLGLKSYYWRVQRYLKDKKYNSYAWMVVRAEVFRNFSIILRLNRNFQNGDDDDKGHHHHHH
For the molecule B2, the “Biological activity of IFNβ in expression supernatants” value in the experiment with BN-GP T cells was “Potent activity”. Further, the “stimulatory activity (antigen-specific proliferation)” value in experiment [1] (independently purified preparations, RsL.11 T cells and irradiated splenic APC) was “devoid of stimulatory activity”.
